# Data: article PMC10254243
# How the values were obtained:
# [1] = molecular target: 5-enolpyruvylshikimate-3-phosphate synthase (EPSPS) from Agrobacterium sp. strain CP4 (CP4-EPSPS) (Agrobacterium sp. strain CP4) (UniProt Q9R4E4); experiment: native gel or EMSA; native-PAGE of the purified CP4-EPSPS protein (10 μg)
# [2] = molecular target: 5-enolpyruvylshikimate-3-phosphate synthase (EPSPS) from Agrobacterium sp. strain CP4 (CP4-EPSPS) (Agrobacterium sp. strain CP4) (UniProt Q9R4E4); experiment: SEC; Enrich SEC 650 column on FPLC, PBS pH 7.2, 25 °C, 0.5 mL/min, calibrated with Gel Filtration Standard; after Ni-NTA affinity chromatography
substance,measurement,setting,value
5-enolpyruvylshikimate-3-phosphate synthase (EPSPS) from Agrobacterium sp. strain CP4 (CP4-EPSPS) (from UniProt Q9R4E4 1-455) (enzyme),stoichiometry N,[1],2
same,stoichiometry N,[2],2
